For assay [1], the target named is gp130 expressed endogenously on IMR-32/STAT3-Luc cells (human) (UniProt P40189). The assay can be described thus: cell-based or functional assay.
For assay [2], the target named is wild-type human GP130 on HEK293.STAT3.Luc.GP130.hLEPR reporter cells (human) (UniProt P40189). The assay can be described thus: cell-based or functional assay.

The results in this text go back to patent US20190185562A1.

Sequence of wild-type human GP130 on HEK293.STAT3.Luc.GP130.hLEPR reporter cells (human) (P40189 23-918): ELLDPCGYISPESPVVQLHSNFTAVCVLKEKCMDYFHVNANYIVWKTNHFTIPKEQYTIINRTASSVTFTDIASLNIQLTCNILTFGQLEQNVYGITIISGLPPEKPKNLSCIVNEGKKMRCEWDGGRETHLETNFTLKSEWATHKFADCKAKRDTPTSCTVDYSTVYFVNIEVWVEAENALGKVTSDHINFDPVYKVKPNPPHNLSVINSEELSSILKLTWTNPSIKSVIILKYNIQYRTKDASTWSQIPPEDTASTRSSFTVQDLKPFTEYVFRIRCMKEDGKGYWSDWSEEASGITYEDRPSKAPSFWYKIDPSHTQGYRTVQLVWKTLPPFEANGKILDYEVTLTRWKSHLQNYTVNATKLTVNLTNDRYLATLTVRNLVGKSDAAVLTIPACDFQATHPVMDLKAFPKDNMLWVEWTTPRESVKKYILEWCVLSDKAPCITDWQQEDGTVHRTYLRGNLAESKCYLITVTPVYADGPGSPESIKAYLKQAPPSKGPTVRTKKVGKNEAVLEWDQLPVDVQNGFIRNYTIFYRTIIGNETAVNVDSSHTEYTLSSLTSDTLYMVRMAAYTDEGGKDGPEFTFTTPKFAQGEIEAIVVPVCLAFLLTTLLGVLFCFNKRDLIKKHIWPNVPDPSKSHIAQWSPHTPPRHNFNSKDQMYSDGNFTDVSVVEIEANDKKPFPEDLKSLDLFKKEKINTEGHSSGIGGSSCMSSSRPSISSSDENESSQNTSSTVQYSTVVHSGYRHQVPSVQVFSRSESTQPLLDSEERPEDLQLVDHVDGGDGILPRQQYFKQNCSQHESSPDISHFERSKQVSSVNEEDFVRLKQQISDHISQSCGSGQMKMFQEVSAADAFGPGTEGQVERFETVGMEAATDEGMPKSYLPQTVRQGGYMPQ
Sequence of gp130 expressed endogenously on IMR-32/STAT3-Luc cells (human) (P40189 23-918): as above

B1: human Ciliary Neurotrophic Factor (ligand, UniProt P26441 2-200, looked up)
chain: AFTEHSPLTPHRRDLCSRSIWLARKIRSDLTALTESYVKHQGLNKNINLDSADGMPVASTDQWSELTEAERLQENLQAYRTFHVLLARLLEDQQVHFTPTEGDFHQAIHTLLLQVAAFAYQIEELMILLEYKIPRNEADGMPINVGDGGLFEKKLWGLKVLQELSQWTVRSIHDLRFISSHQTGIPARGSHYIANNKKM
With B1, the EC50 of activation of IMR-32/STAT3-luc cells (STAT3-luciferase) in assay [1] was found to be 0.004 nM.

B2: human Oncostatin M (ligand, UniProt P13725 26-252, looked up)
chain: AAIGSCSKEYRVLLGQLQKQTDLMQDTSRLLDPYIRIQGLDVPKLREHCRERPGAFPSEETLRGLGRRGFLQTLNATLGCVLHRLADLEQRLPKAQDLERSGLNIEDLEKLQMARPNILGLRNNIYCMAQLLDNSDTAEPTKAGRGASQPPTPTPASDAFQRKLEGCRFLHGYHRFMHSVGRVFSKWGESPNRSRRHSPHQALRKGVRRTRPSRKGKRLMTRGQLPR
In assay [2], B2 yielded an EC50 (M), STAT3-luciferase activation of HEK293.STAT3.Luc.GP130.hLEPR (Y1141F) cells of 5.92e-10 M; an EC50 (M), STAT3-luciferase activation of HEK293.STAT3.Luc.GP130.hLEPR (a) cells of 1.21e-10 M; a Percentage activation as compared to hOSM of 100%; a Percentage maximum activation as compared to hOSM of 100%. The molecule also returned an EC50 of activation of IMR-32/STAT3-luc cells (STAT3-luciferase) in assay [1] of 0.054 nM.
